Results as given in US20110091994A1, “Methods for Screening Compounds for Treating and/or Preventing an Hepatitis C Virus Infection” (priority 2008, published 2011).
Like-named read-outs stand apart in the source and are kept apart here.

B1: PAK4 (protein, UniProt O96013 1-591, looked up)
Serine/threonine-protein …: MFGKRKKRVEISAPSNFEHRVHTGFDQHEQKFTGLPRQWQSLIEESARRPKPLVDPACITSIQPGAPKTIVRGSKGAKDGALTLLLDEFENMSVTRSNSLRRDSPPPPARARQENGMPEEPATTARGGPGKAGSRGRFAGHSEAGGGSGDRRRAGPEKRPKSSREGSGGPQESSRDKRPLSGPDVGTPQPAGLASGAKLAAGRPFNTYPRADTDHPSRGAQGEPHDVAPNGPSAGGLAIPQSSSSSSRPPTRARGAPSPGVLGPHASEPQLAPPACTPAAPAVPGPPGPRSPQREPQRVSHEQFRAALQLVVDPGDPRSYLDNFIKIGEGSTGIVCIATVRSSGKLVAVKKMDLRKQQRRELLFNEVVIMRDYQHENVVEMYNSYLVGDELWVVMEFLEGGALTDIVTHTRMNEEQIAAVCLAVLQALSVLHAQGVIHRDIKSDSILLTHDGRVKLSDFGFCAQVSKEVPRRKSLVGTPYWMAPELISRLPYGPEVDIWSLGIMVIEMVDGEPPYFNEPPLKAMKMIRDNLPPRLKNLHKVSPSLKGFLDRLLVRDPAQRATAAELLKHPFLAKAGPPASIVPLMRQNRTR
B2: SESTD1 (protein, UniProt Q86VW0 1-696, looked up)
SEC14 domain and spectrin …: MEASVILPILKKKLAFLSGGKDRRSGLILTIPLCLEQTNMDELSVTLDYLLSIPSEKCKARGFTVIVDGRKSQWNVVKTVVVMLQNVVPAEVSLVCVVKPDEFWDKKVTHFCFWKEKDRLGFEVILVSANKLTRYIEPCQLTEDFGGSLTYDHMDWLNKRLVFEKFTKESTSLLDELALINNGSDKGNQQEKERSVDLNFLPSVDPETVLQTGHELLSELQQRRFNGSDGGVSWSPMDDELLAQPQVMKLLDSLREQYTRYQEVCRQRSKRTQLEEIQQKVMQVVNWLEGPGSEQLRAQWGIGDSIRASQALQQKHEEIESQHSEWFAVYVELNQQIAALLNAGDEEDLVELKSLQQQLSDVCYRQASQLEFRQNLLQAALEFHGVAQDLSQQLDGLLGMLCVDVAPADGASIQQTLKLLEEKLKSVDVGLQGLREKGQGLLDQISNQASWAYGKDVTIENKENVDHIQGVMEDMQLRKQRCEDMVDVRRLKMLQMVQLFKCEEDAAQAVEWLSELLDALLKTHIRLGDDAQETKVLLEKHRKFVDVAQSTYDYGRQLLQATVVLCQSLRCTSRSSGDTLPRLNRVWKQFTIASEERVHRLEMAIAFHSNAEKILQDCPEEPEAINDEEQFDEIEAVGKSLLDRLTVPVVYPDGTEQYFGSPSDMASTAENIRDRMKLVNLKRQQLRHPEMVTTES
B3: SF3B2 (protein, UniProt Q13435 1-895, looked up)
Splicing factor 3B subunit 2: MATEHPEPPKAELQLPPPPPPGHYGAWAAQELQAKLAEIGAPIQGNREELVERLQSYTRQTGIVLNRPVLRGEDGDKAAPPPMSAQLPGIPMPPPPLGLPPLQPPPPPPPPPPGLGLGFPMAHPPNLGPPPPLRVGEPVALSEEERLKLAQQQAALLMQQEERAKQQGDHSLKEHELLEQQKRAAVLLEQERQQEIAKMGTPVPRPPQDMGQIGVRTPLGPRVAAPVGPVGPTPTVLPMGAPVPRPRGPPPPPGDENREMDDPSVGPKIPQALEKILQLKESRQEEMNSQQEEEEMETDARSSLGQSASETEEDTVSVSKKEKNRKRRNRKKKKKPQRVRGVSSESSGDREKDSTRSRGSDSPAADVEIEYVTEEPEIYEPNFIFFKRIFEAFKLTDDVKKEKEKEPEKLDKLENSAAPKKKGFEEEHKDSDDDSSDDEQEKKPEAPKLSKKKLRRMNRFTVAELKQLVARPDVVEMHDVTAQDPKLLVHLKATRNSVPVPRHWCFKRKYLQGKRGIEKPPFELPDFIKRTGIQEMREALQEKEEQKTMKSKMREKVRPKMGKIDIDYQKLHDAFFKWQTKPKLTIHGDLYYEGKEFETRLKEKKPGDLSDELRISLGMPVGPNAHKVPPPWLIAMQRYGPPPSYPNLKIPGLNSPIPESCSFGYHAGGWGKPPVDETGKPLYGDVFGTNAAEFQTKTEEEEIDRTPWGELEPSDEESSEEEEEEESDEDKPDETGFITPADSGLITPGGFSSVPAGMETPELIELRKKKIEEAMDGSETPQLFTVLPEKRTATVGGAMMGSTHIYDMSTVMSRKGPAPELQGVEVALAPEELELDPMAMTQKYEEHVREQQAQVEKEDFSDMVAEHAAKQKQKKRKAQPQDSRGGSKKYKEFKF
B4: SIAH1 (protein, UniProt Q8IUQ4 1-282, looked up)
E3 ubiquitin-protein ligase …: MSRQTATALPTGTSKCPPSQRVPALTGTTASNNDLASLFECPVCFDYVLPPILQCQSGHLVCSNCRPKLTCCPTCRGPLGSIRNLAMEKVANSVLFPCKYASSGCEITLPHTEKADHEELCEFRPYSCPCPGASCKWQGSLDAVMPHLMHQHKSITTLQGEDIVFLATDINLPGAVDWVMMQSCFGFHFMLVLEKQEKYDGHQQFFAIVQLIGTRKQAENFAYRLELNGHRRRLTWEATPRSIHEGIATAIMNSDCLVFDTSIAQLFAENGNLGINVTISMC
B5: SLIT2 (protein, UniProt O94813 31-1529, looked up)
Slit homolog 2 protein: QCSCSGSTVDCHGLALRSVPRNIPRNTERLDLNGNNITRITKTDFAGLRHLRVLQLMENKISTIERGAFQDLKELERLRLNRNHLQLFPELLFLGTAKLYRLDLSENQIQAIPRKAFRGAVDIKNLQLDYNQISCIEDGAFRALRDLEVLTLNNNNITRLSVASFNHMPKLRTFRLHSNNLYCDCHLAWLSDWLRQRPRVGLYTQCMGPSHLRGHNVAEVQKREFVCSGHQSFMAPSCSVLHCPAACTCSNNIVDCRGKGLTEIPTNLPETITEIRLEQNTIKVIPPGAFSPYKKLRRIDLSNNQISELAPDAFQGLRSLNSLVLYGNKITELPKSLFEGLFSLQLLLLNANKINCLRVDAFQDLHNLNLLSLYDNKLQTIAKGTFSPLRAIQTMHLAQNPFICDCHLKWLADYLHTNPIETSGARCTSPRRLANKRIGQIKSKKFRCSAKEQYFIPGTEDYRSKLSGDCFADLACPEKCRCEGTTVDCSNQKLNKIPEHIPQYTAELRLNNNEFTVLEATGIFKKLPQLRKINFSNNKITDIEEGAFEGASGVNEILLTSNRLENVQHKMFKGLESLKTLMLRSNRITCVGNDSFIGLSSVRLLSLYDNQITTVAPGAFDTLHSLSTLNLLANPFNCNCYLAWLGEWLRKKRIVTGNPRCQKPYFLKEIPIQDVAIQDFTCDDGNDDNSCSPLSRCPTECTCLDTVVRCSNKGLKVLPKGIPRDVTELYLDGNQFTLVPKELSNYKHLTLIDLSNNRISTLSNQSFSNMTQLLTLILSYNRLRCIPPRTFDGLKSLRLLSLHGNDISVVPEGAFNDLSALSHLAIGANPLYCDCNMQWLSDWVKSEYKEPGIARCAGPGEMADKLLLTTPSKKFTCQGPVDVNILAKCNPCLSNPCKNDGTCNSDPVDFYRCTCPYGFKGQDCDVPIHACISNPCKHGGTCHLKEGEEDGFWCICADGFEGENCEVNVDDCEDNDCENNSTCVDGINNYTCLCPPEYTGELCEEKLDFCAQDLNPCQHDSKCILTPKGFKCDCTPGYVGEHCDIDFDDCQDNKCKNGAHCTDAVNGYTCICPEGYSGLFCEFSPPMVLPRTSPCDNFDCQNGAQCIVRINEPICQCLPGYQGEKCEKLVSVNFINKESYLQIPSAKVRPQTNITLQIATDEDSGILLYKGDKDHIAVELYRGRVRASYDTGSHPASAIYSVETINDGNFHIVELLALDQSLSLSVDGGNPKIITNLSKQSTLNFDSPLYVGGMPGKSNVASLRQAPGQNGTSFHGCIRNLYINSELQDFQKVPMQTGILPGCEPCHKKVCAHGTCQPSSQAGFTCECQEGWMGPLCDQRTNDPCLGNKCVHGTCLPINAFSYSCKCLEGHGGVLCDEEEDLFNPCQAIKCKHGKCRLSGLGQPYCECSSGYTGDSCDREISCRGERIRDYYQKQQGYAACQTTKKVSRLECRGGCAGGQCCGPLRSKRRKYSFECTDGSSFVDEVEKVVKCGCTRCVS
B6: SLIT3 (protein, UniProt O75094 34-1523, looked up)
Slit homolog 3 protein: CPTKCTCSAASVDCHGLGLRAVPRGIPRNAERLDLDRNNITRITKMDFAGLKNLRVLHLEDNQVSVIERGAFQDLKQLERLRLNKNKLQVLPELLFQSTPKLTRLDLSENQIQGIPRKAFRGITDVKNLQLDNNHISCIEDGAFRALRDLEILTLNNNNISRILVTSFNHMPKIRTLRLHSNHLYCDCHLAWLSDWLRQRRTVGQFTLCMAPVHLRGFNVADVQKKEYVCPAPHSEPPSCNANSISCPSPCTCSNNIVDCRGKGLMEIPANLPEGIVEIRLEQNSIKAIPAGAFTQYKKLKRIDISKNQISDIAPDAFQGLKSLTSLVLYGNKITEIVKGLFDGLVSLQLLLLNANKINCLRVNTFQDLQNLNLLSLYDNKLQTISKGLFAPLQSIQTLHLAQNPFVCDCHLKWLADYLQDNPIETSGARCSSPRRLANKRISQIKSKKFRCSGSEDYRSRFSSECFMDLVCPEKCRCEGTIVDCSNQKLVRIPSHLPEYVTDLRLNDNEVSVLEATGIFKKLPNLRKINLSNNKIKEVREGAFDGAASVQELMLTGNQLETVHGRVFRGLSGLKTLMLRSNLIGCVSNDTFAGLSSVRLLSLYDNRITTITPGAFTTLVSLSTINLLSNPFNCNCHLAWLGKWLRKRRIVSGNPRCQKPFFLKEIPIQDVAIQDFTCDGNEESSCQLSPRCPEQCTCMETVVRCSNKGLRALPRGMPKDVTELYLEGNHLTAVPRELSALRHLTLIDLSNNSISMLTNYTFSNMSHLSTLILSYNRLRCIPVHAFNGLRSLRVLTLHGNDISSVPEGSFNDLTSLSHLALGTNPLHCDCSLRWLSEWVKAGYKEPGIARCSSPEPMADRLLLTTPTHRFQCKGPVDINIVAKCNACLSSPCKNNGTCTQDPVELYRCACPYSYKGKDCTVPINTCIQNPCQHGGTCHLSDSHKDGFSCSCPLGFEGQRCEINPDDCEDNDCENNATCVDGINNYVCICPPNYTGELCDEVIDHCVPELNLCQHEAKCIPLDKGFSCECVPGYSGKLCETDNDDCVAHKCRHGAQCVDTINGYTCTCPQGFSGPFCEHPPPMVLLQTSPCDQYECQNGAQCIVVQQEPTCRCPPGFAGPRCEKLITVNFVGKDSYVELASAKVRPQANISLQVATDKDNGILLYKGDNDPLALELYQGHVRLVYDSLSSPPTTVYSVETVNDGQFHSVELVTLNQTLNLVVDKGTPKSLGKLQKQPAVGINSPLYLGGIPTSTGLSALRQGTDRPLGGFHGCIHEVRINNELQDFKALPPQSLGVSPGCKSCTVCKHGLCRSVEKDSVVCECRPGWTGPLCDQEARDPCLGHRCHHGKCVATGTSYMCKCAEGYGGDLCDNKNDSANACSAFKCHHGQCHISDQGEPYCLCQPGFSGEHCQQENPCLGQVVREVIRRQKGYASCATASKVPIMECRGGCGPQCCQPTRSKRRKYVFQCTDGSSFVEEVERHLECGCLACS

Experiments:
[1] = target: T1, HCV ORFs (Gal4-DB fusions) (Hepatitis C virus genotype 1b, UniProt Q9WMX2); type: binding, HCV genotype 1b, isolate con1; conditions: human protein as prey
T1 construct: expressed in transfected cells; host or cells: Saccharomyces cerevisiae MAV203 (IMAP1) / AH109 (IMAP2)

[2] = test system: HCV ORFs (Gal4-DB fusions); type: binding, HCV genotype 1b, isolate con1; conditions: human protein listed by gene symbol; the value names the HCV protein it interacts with
HCV proteins = target: T2, HCV proteins (Hepatitis C virus genotype 1b, UniProt Q9WMX2); assay: Validation by Y2H pairwise matrices; type: binding;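 note: yeast two-hybrid pairwise tests of interactions first found in Y2H screens of HCV bait proteins against human cDNA libraries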
T2 construct: expressed in transfected cells

[3] = validation of interaction with HCV protein NS3
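Throughout, for IMAP Y2H IMAP1 (number of IST): yeast two-hybrid screens using HCV genotype 1b proteins fused to Gal4-DB as baits against prey cDNA libraries from human spleen and foetal brain, IMAP1 via transformation and IMAP2 via mating.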
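Throughout, for Interaction with viral protein: yeast two-hybrid screens using HCV genotype 1b proteins fused to Gal4-DB as baits against prey cDNA libraries from human spleen and foetal brain, IMAP1 via transformation and IMAP2 via mating.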

Row | Molecule | IMAP Y2H IMAP1 (number of IST) ([1]; HCV protein CORE as bait) | Interaction with viral protein [2] | Y2H matrices (HCV proteins; validation of interaction with HCV protein CORE) | IMAP Y2H IMAP1 (number of IST) ([1]; HCV protein NS3 as bait) | Y2H matrices (HCV proteins; [3]) | IMAP Y2H IMAP1 (number of IST) ([1]; HCV protein p7 as bait) | Y2H matrices (HCV proteins; interaction with HCV protein p7)
1 | B1 | 1 | CORE | + |  |  |  | 
2 | B2 |  | NS3 |  | 1 | + |  | 
3 | B3 |  | NS3 |  | 1 | + |  | 
4 | B4 |  | NS3 |  | 1 | + |  | 
5 | B5 |  | NS3 |  | 5 | + | 1 | +
6 | B6 |  | NS3 |  | 4 | + |  | 
